Assay results reported in patent publication US11472840B2, “Acetylcholine receptor-binding peptide” (AMICOGEN, INC., priority 2017, dated 2022).

Assays:
[1] = target: acetylcholine receptor (Homo sapiens, UniProt P02708); test: Surface plasmon resonance (SPR) affinity measurement on a biosensor chip (Biacore 3000); details: running buffer 20 mM Tris pH 7.4, peptide 0.1 to 0.5 μM, higher binding than Synake (FIG. 10)
Experimental: A surface plasmon resonance (SPR) experiment was progressed using a biosensor chip to check affinity values for acetylcholine receptors of S6_1 (SEQ ID NO: 23, WTWKGKGTLNR), i.e., discovered peptides and Synake, i.e., a positive control group (Biacore 3000, Biacore AB, Uppsala, Sweden). […] A binding ability comparing experiment was carried out under observation conditions of a running buffer of 20 mM Tris (pH 7.4), a speed of 30 ? /min, a concentration of 10 to 50 μM (Synake), and a concentration of 0.1 to 10 μM (peptides S6_1). Respective results of the binding ability comparing experiment are shown in FIG. 7 (Synake) and FIG. 8 (peptides S6_1).
A surface plasmon resonance (SPR) experiment was progressed using a biosensor chip to check affinity values for acetylcholine receptors of optimized S6_1_C9 peptides (SEQ ID NO: 28, WKGKGTLNR) prepared in Example 6 (Biacore 3000, Biacore AB, Uppsala, Sweden).
An experiment of measuring affinity values of the peptides was carried out under observation conditions of a running buffer of 20 mM Tris (pH 7.4), a speed of 30 ? /min, and a concentration of 0.1 to 0.5 μM (peptides S6_1_C9).

[2] = target: acetylcholine receptor (AchR) alpha 1; test: SPR (Biacore 3000), AchR coupled to chip, peptide 0.1 to 0.5 uM; reference Synake
Chain of acetylcholine receptor (AchR) alpha 1 (P02708 whole entry): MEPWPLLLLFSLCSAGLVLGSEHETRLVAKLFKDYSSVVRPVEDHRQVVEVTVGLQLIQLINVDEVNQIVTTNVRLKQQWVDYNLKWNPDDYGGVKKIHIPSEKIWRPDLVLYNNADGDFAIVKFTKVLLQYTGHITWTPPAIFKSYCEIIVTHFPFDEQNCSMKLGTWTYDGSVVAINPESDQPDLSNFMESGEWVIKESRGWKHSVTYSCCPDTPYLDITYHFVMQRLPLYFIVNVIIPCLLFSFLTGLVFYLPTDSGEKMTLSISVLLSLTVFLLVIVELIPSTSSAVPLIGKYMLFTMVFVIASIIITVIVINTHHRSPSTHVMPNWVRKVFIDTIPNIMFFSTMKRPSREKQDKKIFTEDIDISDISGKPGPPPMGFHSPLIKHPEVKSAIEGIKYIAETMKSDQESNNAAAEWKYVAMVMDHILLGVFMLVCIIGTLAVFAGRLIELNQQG

Chain of acetylcholine receptor (P02708 21-457): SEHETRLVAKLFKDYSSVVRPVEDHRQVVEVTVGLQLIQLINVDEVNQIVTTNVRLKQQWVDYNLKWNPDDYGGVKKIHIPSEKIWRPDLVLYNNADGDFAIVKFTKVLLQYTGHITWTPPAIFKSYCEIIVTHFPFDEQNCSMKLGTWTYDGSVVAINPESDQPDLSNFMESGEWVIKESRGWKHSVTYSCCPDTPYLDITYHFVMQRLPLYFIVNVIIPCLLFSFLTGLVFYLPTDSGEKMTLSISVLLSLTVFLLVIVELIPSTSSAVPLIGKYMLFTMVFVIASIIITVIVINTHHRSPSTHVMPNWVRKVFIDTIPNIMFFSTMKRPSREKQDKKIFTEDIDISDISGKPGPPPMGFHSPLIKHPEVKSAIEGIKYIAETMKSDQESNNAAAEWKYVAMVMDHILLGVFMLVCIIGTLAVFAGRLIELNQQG

For WKGKGTLNR (Ach-R) [S6_1_C9], the “binding ability for acetylcholine receptor relative to Synake” value [1] was “about 100 times”.

For WKGKGTLNR [S6_1_C9], the binding abilities, fold higher than Synake [2] was 100 times.
